Results as given in patent US20040214255A1 (MYRIAD GENETICS, published 2004).

Assays:
Assay in all cases: yeast two-hybrid
[1] = target: T1, BAP31, amino acids 111-247 (human, UniProt P51572 111-246)
T1 construct: range 111-247
T1 sequence (looked up): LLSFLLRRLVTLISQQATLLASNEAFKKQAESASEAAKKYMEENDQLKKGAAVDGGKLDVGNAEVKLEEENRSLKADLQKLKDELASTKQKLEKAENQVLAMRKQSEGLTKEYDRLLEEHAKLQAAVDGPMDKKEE
Excerpt: (§1) The new construct was selected directly in the yeast strain PNY200 for its ability to drive tryptophane synthesis (genotype of this strain: […] trp1-901 leu2-3,112 ura3-52 his3-200 ade2 gal4Δ gal80). In these yeast cells, the bait was produced as a C-terminal fusion protein with the DNA binding domain of the transcription factor Ga14 (amino acids 1 to 147). Prey libraries were transformed into the yeast strain BK100 (genotype of this strain: MATα trp1-901 leu2-3,112 ura3-52 his3-200 gal4Δ gal80 LYS2::GAL-HIS3 GAL2-ADE2 met2::GAL7-lacZ), and selected for the ability to drive leucine synthesis. In these yeast cells, each cDNA was expressed as a fusion protein with the transcription activation domain of the transcription factor Ga14 (amino acids 768 to 881) and a 9 amino acid hemagglutinin epitope tag. PNY200 cells (MATα mating type), expressing the bait, were then mated with BK100 cells (MATa mating type), expressing prey proteins from a prey library. The resulting diploid yeast cells expressing proteins interacting with the bait protein were selected for the ability to synthesize tryptophan, leucine, histidine, and adenine. DNA was prepared from each clone, transformed by electroporation into E. coli strain KC8 (Clontech KC8 electrocompetent cells, Catalog No. C2023-1), and the cells were selected on ampicillin-containing plates in the absence of either tryptophane (selection for the bait plasmid) or leucine (selection for the library plasmid). DNA for both plasmids was prepared and sequenced by the dideoxynucleotide chain termination method. The identity of the bait cDNA insert was confirmed and the cDNA insert from the prey library plasmid was identified using the BLAST program to search against public nucleotide and protein databases. Plasmids from the prey library were then individually transformed into yeast cells together with a plasmid driving the synthesis of lamin and 5 other test proteins, respectively, fused to the Ga14 DNA binding domain. Clones that gave a positive signal in the β-galactosidase assay were considered false-positives and discarded. […] Clones that gave a positive signal in the β-galactosidase assay were considered true positives.

[2] = target: T2, Myosin Heavy Chain (Swiss Protein P13533), amino acids 1589-1909 (human, UniProt P13533 1589-1909)
T2 construct: range 1589-1909; also called cardiac muscle myosin heavy chain; MYSA
T2 sequence (P13533 1589-1909, one chain of several): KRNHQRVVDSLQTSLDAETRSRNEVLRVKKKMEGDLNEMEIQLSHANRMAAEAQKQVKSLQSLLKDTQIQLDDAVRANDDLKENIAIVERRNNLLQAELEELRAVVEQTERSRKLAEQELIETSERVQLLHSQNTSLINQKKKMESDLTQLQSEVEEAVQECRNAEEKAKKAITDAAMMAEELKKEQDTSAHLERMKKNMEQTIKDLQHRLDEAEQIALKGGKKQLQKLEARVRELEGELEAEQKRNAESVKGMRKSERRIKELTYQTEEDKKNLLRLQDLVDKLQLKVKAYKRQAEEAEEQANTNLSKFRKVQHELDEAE
Excerpt: as §1

[3] = target: T3, Tropomyosin 3, amino acids 171-286 (human, UniProt P06753 171-285)
T3 construct: range 171-286
T3 sequence (P06753 171-285 limits assumed): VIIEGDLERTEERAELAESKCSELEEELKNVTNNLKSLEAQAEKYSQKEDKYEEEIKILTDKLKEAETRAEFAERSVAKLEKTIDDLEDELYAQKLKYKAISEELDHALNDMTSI
Excerpt: as §1

[4] = target: T4, 14-3-3-Eta, amino acids 91-246 (human, UniProt Q04917 91-246)
T4 construct: range 91-246
T4 sequence (looked up): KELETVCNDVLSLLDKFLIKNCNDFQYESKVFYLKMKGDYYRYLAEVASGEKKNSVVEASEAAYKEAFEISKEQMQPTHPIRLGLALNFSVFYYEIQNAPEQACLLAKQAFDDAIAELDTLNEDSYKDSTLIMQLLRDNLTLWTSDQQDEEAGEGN
Excerpt: as §1

[5] = target: T5, 14-3-3-Zeta, amino acids 79-246 (human, UniProt P63104 79-245)
T5 sequence: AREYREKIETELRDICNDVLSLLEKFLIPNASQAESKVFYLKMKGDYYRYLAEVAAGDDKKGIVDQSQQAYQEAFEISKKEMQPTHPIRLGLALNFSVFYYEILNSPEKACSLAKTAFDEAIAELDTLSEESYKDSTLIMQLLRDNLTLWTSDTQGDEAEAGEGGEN
Excerpt: as §1

[6] = target: T6, Dynamin, amino acids 104-365 (human, UniProt Q05193 104-365)
T6 construct: range 104-365
T6 sequence (looked up): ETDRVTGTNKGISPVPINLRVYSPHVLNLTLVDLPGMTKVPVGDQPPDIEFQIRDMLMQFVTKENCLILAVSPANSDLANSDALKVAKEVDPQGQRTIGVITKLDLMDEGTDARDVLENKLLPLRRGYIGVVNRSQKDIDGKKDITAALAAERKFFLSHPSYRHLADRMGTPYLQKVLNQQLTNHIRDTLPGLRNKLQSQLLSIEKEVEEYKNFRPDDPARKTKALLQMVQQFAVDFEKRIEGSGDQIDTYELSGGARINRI
Excerpt: as §1

[7] = target: T7, Insulin-Regulated Membrane-Spanning Aminopeptidase (IRAP), amino acids 129-473 (human, UniProt Q9UIQ6 129-473)
T7 construct: range 129-473; also called vp165; gp160
T7 sequence (Q9UIQ6 129-473 limits assumed): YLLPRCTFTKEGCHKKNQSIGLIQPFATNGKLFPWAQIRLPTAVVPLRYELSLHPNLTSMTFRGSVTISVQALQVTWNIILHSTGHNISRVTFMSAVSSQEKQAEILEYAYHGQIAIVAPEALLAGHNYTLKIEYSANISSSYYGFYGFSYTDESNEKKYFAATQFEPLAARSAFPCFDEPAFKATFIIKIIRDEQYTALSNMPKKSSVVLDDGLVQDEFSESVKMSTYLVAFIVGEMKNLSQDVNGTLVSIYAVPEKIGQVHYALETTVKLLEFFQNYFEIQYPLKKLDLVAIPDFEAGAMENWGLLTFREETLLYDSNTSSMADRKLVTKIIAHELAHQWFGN
Excerpt: as §1

B1: Akt kinase 2 (Akt2), amino acids 276-408 (enzyme, human, UniProt P31751 276-408, looked up)
chain: IKLENLMLDKDGHIKITDFGLCKEGISDGATMKTFCGTPEYLAPEVLEDNDYGRAVDWWGLGVVMYEMMCGRLPFYNQDHERLFELILMEEIRFPRTLSPEAKSLLAGLLKKDPKQRLGGGPSDAKEVMEHRF
notes: range 276-408
- binding result [1]: binds

Binder: TYFKVPETKGRTFDEIASGFRQGGASQSDKTPEELFHPLGADSQV (other, human, UniProt P11166 448-492, looked up, range 448-493; also called GLUT1; Glut1) [Glucose Transporter 1, amino acids 448-493]
- binding result [2]: binds

B2: Glut4, amino acids 434-510 (other, human, UniProt P14672 434-509, looked up)
chain: IGMGFQYVAEAMGPYVFLLFAVLLLGFFIFTFLRVPETRGRTFDQISAAFHRTPSLLEQEVKPSTELEYLGPDEND
notes: range 434-510; also called Glucose Transporter 4
- binding result [3]: binds

B3: PI-3K85, amino acids 1-50 (other, human, UniProt P27986 1-50, looked up)
chain: MSAEGYQYRALYDYKKEREEDIDLHLGDILTVNKGSLVALGFSDGQEARP
notes: range 1-50; also called p85 regulatory subunit of PI-3 kinase; PI-3 kinase p85
- binding result [4]: binds
- binding result [5]: binds

B4: GLUT1, amino acids 463-492 (other, human, UniProt P11166 463-492, looked up)
chain: IASGFRQGGASQSDKTPEELFHPLGADSQV
notes: range 463-492; also called Glucose Transporter 1
- binding result [6]: binds

B5: 14-3-3 Beta, amino acids 97-236 (other, human, UniProt P31946 97-236, looked up)
chain: NDVLELLDKYLIPNATQPESKVFYLKMKGDYFRYLSEVASGDNKQTTVSNSQQAYQEAFEISKKEMQPTHPIRLGLALNFSVFYYEILNSPEKACSLAKTAFDEAIAELDTLNEESYKDSTLIMQLLRDNLTLWTSENQG
notes: range 97-236
- binding result [7]: binds
